Structures can show the parent of a compound that is named as a salt. Residues, ends and D or L forms follow the SMILES beside them. *: point of attachment. X4 = CC(=O)Oc1ccc2c3c1OC1C(O*)=CCC4[C@@H](C2)N(C)CC[C@]314; X2 = CN1CC[C@]23c4c5ccc(O)c4O[C@H]2C(O*)=CC[C@H]3[C@H]1C5; X1 = COc1ccc2c3c1OC1C(O*)=CCC4[C@@H](C2)N(C)CC[C@]314; X3 = CN1CC[C@]23c4c5ccc(O)c4OC2C(O*)=CCC3[C@H]1C5

Series [1] is described as follows: Oral bioavailability of hydromorphone conjugates. The note with it: rats; for Oral AUC %: corrected value calculated based on the bioavailability of the control (HM); for Oral Cmax %: corrected value calculated based on the control (HM).
Series [2] can be described thus: Intranasal bioavailability of hydromorphone conjugates. As to conditions: rats; for IN AUC %: corrected value calculated based on the bioavailability of the control (HM); for IN Cmax %: corrected value calculated based on the control (HM).
The nature of series [3]: stability 90 C., 20 min (V, BP, TW, BS) of hydrocodone conjugates. As to conditions: for stability 90 C., 20 min BP: BP (abbreviation not defined); for stability 90 C., 20 min BS: BS (abbreviation not defined); for stability 90 C., 20 min TW: TW (abbreviation not defined); for stability 90 C., 20 min V: V (abbreviation not defined).
A short description of series [4]: Oral bioavailability of hydrocodone conjugates (plasma hydrocodone plus hydromorphone). As to conditions: oral, rats; relative to hydrocodone.

As to `CN1CC[C@]23c4c5ccc(O)c4O[C@H]2C(OC(=O)[C@H](Cc2ccccc2)NC(=O)[C@H](Cc2ccccc2)NC(=O)[C@H](Cc2ccccc2)NC(=O)[C@H](CCC(=O)O)NC(=O)[C@@H](N)CCC(=O)O)=CC[C@H]3[C@H]1C5` [EEFFF-HM, Glu2-Phe3-Hydromorphone.Dihydrochloride] (H-EEFFF-X2), in series [1], the “Oral AUC %” value is reported as 79% and the “Oral Cmax %” value was 78%. In addition, in series [2], the “IN AUC %” value is reported as 52% and the “IN Cmax %” value was 57%.

Consider `CC[C@H](C)[C@H](NC(=O)[C@H](CCC(=O)O)NC(=O)[C@@H](N)CCC(=O)O)C(=O)OC1=CC[C@H]2[C@H]3Cc4ccc(O)c5c4[C@@]2(CCN3C)[C@H]1O5` [EEI-HM], for which, in series [1], the “Oral AUC %” value is 56% and the “Oral Cmax %” value is 73%. In series [2], the “IN AUC %” value is 59% and the “IN Cmax %” value is 88%.

For `CC(C)C[C@H](NC(=O)[C@H](CCC(=O)O)NC(=O)[C@@H](N)CCC(=O)O)C(=O)OC1=CC[C@H]2[C@H]3Cc4ccc(O)c5c4[C@@]2(CCN3C)[C@H]1O5` [EEL-HM], in series [1], the “Oral AUC %” value is given as 27% and the “Oral Cmax %” value is 49%. Besides, in series [2], the “IN AUC %” value is recorded as 84% and the “IN Cmax %” value is recorded as 98%.

As to `CC(C)[C@H](NC(=O)[C@H](CCC(=O)O)NC(=O)[C@@H](N)CCC(=O)O)C(=O)OC1=CC[C@H]2[C@H]3Cc4ccc(O)c5c4[C@@]2(CCN3C)[C@H]1O5` [EEV-HM], in series [1], the “Oral AUC %” value is on record as 21% and the “Oral Cmax %” value is reported as 50%. For the same molecule, in series [2], the “IN AUC %” value was 31% and the “IN Cmax %” value is listed as 70%.

Regarding `CC[C@H](C)[C@H](NC(=O)[C@H](Cc1ccccc1)NC(=O)[C@@H](N)Cc1ccccc1)C(=O)OC1=CC[C@H]2[C@H]3Cc4ccc(O)c5c4[C@@]2(CCN3C)[C@H]1O5` [FFI-HM], in series [1], the “Oral AUC %” value was 18% and the “Oral Cmax %” value is 47%. Moreover, in series [2], the “IN AUC %” value is reported as 79% and the “IN Cmax %” value was 92%.

Turning to `CC(C)C[C@H](NC(=O)[C@H](Cc1ccccc1)NC(=O)[C@@H](N)Cc1ccccc1)C(=O)OC1=CC[C@H]2[C@H]3Cc4ccc(O)c5c4[C@@]2(CCN3C)[C@H]1O5` [FFL-HM], in series [1], the “Oral AUC %” value is listed as 11% and the “Oral Cmax %” value is listed as 24%. Also, in series [2], the “IN AUC %” value is on record as 92% and the “IN Cmax %” value is reported as 96%.

As to `CC(C)[C@H](NC(=O)[C@H](Cc1ccccc1)NC(=O)[C@@H](N)Cc1ccccc1)C(=O)OC1=CC[C@H]2[C@H]3Cc4ccc(O)c5c4[C@@]2(CCN3C)[C@H]1O5` [FFV-HM], in series [1], the “Oral AUC %” value is reported as 8% and the “Oral Cmax %” value is reported as 36%. In addition, in series [2], the “IN AUC %” value is 98% and the “IN Cmax %” value is 103%.

Regarding `CC[C@H](C)[C@H](NC(=O)CNC(=O)CN)C(=O)OC1=CCC2[C@H]3Cc4ccc(O)c5c4[C@@]2(CCN3C)C1O5` (stereo partly shown) [GGI-HM], in series [1], the “Oral AUC %” value is listed as 17% and the “Oral Cmax %” value is 32%. Also, in series [2], the “IN AUC %” value is reported as 24% and the “IN Cmax %” value was 66%.

As for `CC(C)C[C@H](NC(=O)CNC(=O)CN)C(=O)OC1=CCC2[C@H]3Cc4ccc(O)c5c4[C@@]2(CCN3C)C1O5` (stereo partly shown) [GGL-HM], in series [1], the “Oral AUC %” value is on record as 22% and the “Oral Cmax %” value was 43%. In addition, in series [2], the “IN AUC %” value was 52% and the “IN Cmax %” value was 85%.

With `CC(C)[C@H](NC(=O)CNC(=O)CN)C(=O)OC1=CCC2[C@H]3Cc4ccc(O)c5c4[C@@]2(CCN3C)C1O5` (stereo partly shown) [GGV-HM], in series [1], the “Oral AUC %” value is 53% and the “Oral Cmax %” value was 63%. For the same molecule, in series [2], the “IN AUC %” value was 51% and the “IN Cmax %” value was 73%.

On to `CC[C@H](C)[C@H](NC(=O)CNC(=O)CN)C(=O)OC1=CCC2[C@H]3Cc4ccc(OC)c5c4[C@@]2(CCN3C)C1O5` (stereo partly drawn) [Gly-Gly-Ile-HC], for which, in series [3], the “stability 90 C., 20 min BP” value amounted to 100; the “stability 90 C., 20 min BS” value is 100; the “stability 90 C., 20 min TW” value turned out to be 93; the “stability 90 C., 20 min V” value is listed as 0.

For the molecule `CC[C@H](C)[C@H](NC(=O)[C@H](CCCCN)NC(=O)[C@@H](N)CCCCN)C(=O)OC1=CCC2[C@H]3Cc4ccc(O)c5c4[C@@]2(CCN3C)C1O5` (stereo partly shown) [KKI-HM], in series [1], the “Oral AUC %” value is listed as 24% and the “Oral Cmax %” value is 56%. Besides, in series [2], the “IN AUC %” value is on record as 68% and the “IN Cmax %” value was 85%.

As to `CC(C)C[C@H](NC(=O)[C@H](CCCCN)NC(=O)[C@@H](N)CCCCN)C(=O)OC1=CCC2[C@H]3Cc4ccc(O)c5c4[C@@]2(CCN3C)C1O5` (stereo partly shown) [KKL-HM], in series [1], the “Oral AUC %” value is given as 24% and the “Oral Cmax %” value is given as 50%. Besides, in series [2], the “IN AUC %” value is reported as 87% and the “IN Cmax %” value was 96%.

Consider `CC(C)[C@H](NC(=O)[C@H](CCCCN)NC(=O)[C@@H](N)CCCCN)C(=O)OC1=CCC2[C@H]3Cc4ccc(O)c5c4[C@@]2(CCN3C)C1O5` (stereo partly shown) [KKV-HM], for which, in series [1], the “Oral AUC %” value was 43% and the “Oral Cmax %” value is on record as 60%. Moreover, in series [2], the “IN AUC %” value is on record as 75% and the “IN Cmax %” value is given as 89%.

As for `CC[C@H](C)[C@H](NC(=O)[C@@H]1CCCN1C(=O)[C@@H]1CCCN1)C(=O)OC1=CCC2[C@H]3Cc4ccc(O)c5c4[C@@]2(CCN3C)C1O5` (stereo partly shown) [PPI-HM], in series [1], the “Oral AUC %” value is recorded as 21% and the “Oral Cmax %” value is listed as 60%. Also, in series [2], the “IN AUC %” value is 77% and the “IN Cmax %” value was 95%.

In the case of `CC(C)C[C@H](NC(=O)[C@@H]1CCCN1C(=O)[C@@H]1CCCN1)C(=O)OC1=CCC2[C@H]3Cc4ccc(O)c5c4[C@@]2(CCN3C)C1O5` (stereo partly shown) [PPL-HM], in series [1], the “Oral AUC %” value is on record as 22% and the “Oral Cmax %” value is reported as 45%. For the same molecule, in series [2], the “IN AUC %” value was 53% and the “IN Cmax %” value is 70%.

Take `CC(C)[C@H](NC(=O)[C@@H]1CCCN1C(=O)[C@@H]1CCCN1)C(=O)OC1=CCC2[C@H]3Cc4ccc(O)c5c4[C@@]2(CCN3C)C1O5` (stereo partly shown) [PPV-HM]: in series [1], the “Oral AUC %” value is recorded as 24% and the “Oral Cmax %” value is 55%. In series [2], the “IN AUC %” value was 71% and the “IN Cmax %” value is reported as 101%.

With `CC[C@H](C)[C@H](NC(=O)[C@@H]1CCCN1C(=O)[C@@H]1CCCN1)C(=O)OC1=CCC2[C@H]3Cc4ccc(OC)c5c4[C@@]2(CCN3C)C1O5` (stereo partly drawn) [Pro-Pro-Ile-HC], in series [3], the “stability 90 C., 20 min BP” value came to 16; the “stability 90 C., 20 min BS” value is recorded as 100; the “stability 90 C., 20 min TW” value came to 70; the “stability 90 C., 20 min V” value is on record as 0.

In the case of `CC[C@H](C)[C@H](NC(=O)[C@@H]1CCCN1C(=O)[C@@H]1CCCN1C(=O)[C@H](Cc1ccc(O)cc1)NC(=O)[C@@H](N)Cc1ccc(O)cc1)C(=O)OC1=CCC2[C@H]3Cc4ccc(OC)c5c4[C@@]2(CCN3C)C1O5` (stereo partly shown) [Tyr2-Pro2-Ile-HC] (H-YYPPI-X1), in series [3], the “stability 90 C., 20 min BP” value was 100; the “stability 90 C., 20 min BS” value worked out at 100; the “stability 90 C., 20 min TW” value is given as 83; the “stability 90 C., 20 min V” value is 0. In series [4], the “bioavailabiltty (% HC) oral AUC” value worked out at 218 % HC and the “bioavailabiltty (% HC) oral Cmax” value came out at 213 % HC.

Turning to `CC[C@H](C)[C@H](NC(=O)[C@H](Cc1ccccc1)NC(=O)[C@H](Cc1ccccc1)NC(=O)[C@H](Cc1ccc(O)cc1)NC(=O)[C@@H](N)Cc1ccc(O)cc1)C(=O)OC1=CCC2[C@H]3Cc4ccc(OC(C)=O)c5c4[C@@]2(CCN3C)C1O5` (stereo partly shown) [YYFFI-HM-OAc] (H-YYFFI-X4), in series [1], the “Oral AUC %” value is 29% and the “Oral Cmax %” value is recorded as 40%. In series [2], the “IN AUC %” value is on record as 59% and the “IN Cmax %” value was 72%.

Consider `CC[C@H](C)[C@H](NC(=O)[C@H](Cc1ccccc1)NC(=O)[C@H](Cc1ccccc1)NC(=O)[C@H](Cc1ccc(O)cc1)NC(=O)[C@@H](N)Cc1ccc(O)cc1)C(=O)OC1=CCC2[C@H]3Cc4ccc(O)c5c4[C@@]2(CCN3C)C1O5` (stereo partly shown) [YYFFI-HM] (H-YYFFI-X3), for which, in series [1], the “Oral AUC %” value is 40% and the “Oral Cmax %” value is on record as 52%. In series [2], the “IN AUC %” value is 4% and the “IN Cmax %” value is on record as 7%.

As for `CC[C@H](C)[C@H](NC(=O)[C@H](Cc1ccc(O)cc1)NC(=O)[C@@H](N)Cc1ccc(O)cc1)C(=O)OC1=CCC2[C@H]3Cc4ccc(O)c5c4[C@@]2(CCN3C)C1O5` (stereo partly shown) [YYI-HM], in series [1], the “Oral AUC %” value was 32% and the “Oral Cmax %” value is given as 66%. In series [2], the “IN AUC %” value is listed as 88% and the “IN Cmax %” value is reported as 86%.

Consider `CC(C)C[C@H](NC(=O)[C@H](Cc1ccc(O)cc1)NC(=O)[C@@H](N)Cc1ccc(O)cc1)C(=O)OC1=CCC2[C@H]3Cc4ccc(O)c5c4[C@@]2(CCN3C)C1O5` (stereo partly shown) [YYL-HM], for which, in series [1], the “Oral AUC %” value is 12% and the “Oral Cmax %” value was 30%. In addition, in series [2], the “IN AUC %” value was 74% and the “IN Cmax %” value was 75%.

On to `CC(C)[C@H](NC(=O)[C@H](Cc1ccc(O)cc1)NC(=O)[C@@H](N)Cc1ccc(O)cc1)C(=O)OC1=CCC2[C@H]3Cc4ccc(O)c5c4[C@@]2(CCN3C)C1O5` (stereo partly shown) [YYV-HM], for which, in series [1], the “Oral AUC %” value is 30% and the “Oral Cmax %” value is 53%. Besides, in series [2], the “IN AUC %” value was 73% and the “IN Cmax %” value is given as 73%.

In the case of “(d)-Lys-(1)-Lys-Ile-Hydrocodone [(d)Lys(I)Lys-Ile-HC]”, in series [3], the “stability 90 C., 20 min BP” value came to 69; the “stability 90 C., 20 min BS” value turned out to be 100; the “stability 90 C., 20 min TW” value came out at 74; the “stability 90 C., 20 min V” value is reported as 0.

Take “Gly-Gly-Leu-Hydrocodone [Gly-Gly-Leu-HC]”: in series [3], the “stability 90 C., 20 min BP” value is reported as 100; the “stability 90 C., 20 min BS” value is 100; the “stability 90 C., 20 min TW” value worked out at 85; the “stability 90 C., 20 min V” value came to 1.

Source of the values: patent US20100144645A1, “COMPOSITIONS AND METHODS FOR ENHANCING […] POTENCY OF […]-COMPOUNDS, A[…] ADVERSE SIDE EFFECTS, AND […] ABUSE” (SHIRE LLC, priority 2006, published 2010).
